Data as given in patent US8263074B2, “Fibroblast growth factor receptor-1 inhibitors and methods of treatment thereof” (ImClone LLC, priority 2003, dated 2012).
Read-outs that look alike come from different tables or passages of the source.

Key:
FGFR-1b = molecular target: T1, FGFR-1b (Homo sapiens, UniProt P11362); experiment: BiaCore binding kinetics; conditions: kinetic analyses
T1 construct: purchased R&D Systems

FGFR-1c = molecular target: T2, FGFR-1c (Homo sapiens, UniProt P11362); experiment: BiaCore binding kinetics; conditions: kinetic analyses; read-out: KD, FGFR-1c
T2 construct: purchased R&D Systems
T2 sequence (P11362 22-822): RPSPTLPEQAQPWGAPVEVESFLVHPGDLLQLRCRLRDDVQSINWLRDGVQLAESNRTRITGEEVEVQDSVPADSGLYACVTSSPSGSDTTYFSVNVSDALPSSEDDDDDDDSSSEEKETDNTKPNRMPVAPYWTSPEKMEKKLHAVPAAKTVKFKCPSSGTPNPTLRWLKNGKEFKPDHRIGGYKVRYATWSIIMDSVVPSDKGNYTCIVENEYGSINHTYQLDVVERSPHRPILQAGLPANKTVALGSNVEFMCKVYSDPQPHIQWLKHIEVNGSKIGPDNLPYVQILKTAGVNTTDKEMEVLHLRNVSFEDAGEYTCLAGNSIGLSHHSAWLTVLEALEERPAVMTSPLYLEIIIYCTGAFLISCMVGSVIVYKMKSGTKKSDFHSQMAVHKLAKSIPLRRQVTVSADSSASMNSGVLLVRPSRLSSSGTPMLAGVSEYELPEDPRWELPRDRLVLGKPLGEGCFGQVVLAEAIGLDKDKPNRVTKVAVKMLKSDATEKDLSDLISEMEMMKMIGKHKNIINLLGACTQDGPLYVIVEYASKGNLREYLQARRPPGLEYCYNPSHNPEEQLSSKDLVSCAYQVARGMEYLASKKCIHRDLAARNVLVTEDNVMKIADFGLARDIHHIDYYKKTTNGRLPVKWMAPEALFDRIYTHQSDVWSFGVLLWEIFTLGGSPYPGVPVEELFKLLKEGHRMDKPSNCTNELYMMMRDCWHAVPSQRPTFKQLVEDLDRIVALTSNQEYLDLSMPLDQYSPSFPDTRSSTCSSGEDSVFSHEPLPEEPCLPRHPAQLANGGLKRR

FGFR-2b = molecular target: T3, FGFR-2b (Homo sapiens, UniProt P21802); experiment: BiaCore binding kinetics; conditions: BiaCore kinetic analysis
T3 construct: purchased R&D Systems
T3 sequence (P21802 22-822 isoform P21802-3 limits assumed): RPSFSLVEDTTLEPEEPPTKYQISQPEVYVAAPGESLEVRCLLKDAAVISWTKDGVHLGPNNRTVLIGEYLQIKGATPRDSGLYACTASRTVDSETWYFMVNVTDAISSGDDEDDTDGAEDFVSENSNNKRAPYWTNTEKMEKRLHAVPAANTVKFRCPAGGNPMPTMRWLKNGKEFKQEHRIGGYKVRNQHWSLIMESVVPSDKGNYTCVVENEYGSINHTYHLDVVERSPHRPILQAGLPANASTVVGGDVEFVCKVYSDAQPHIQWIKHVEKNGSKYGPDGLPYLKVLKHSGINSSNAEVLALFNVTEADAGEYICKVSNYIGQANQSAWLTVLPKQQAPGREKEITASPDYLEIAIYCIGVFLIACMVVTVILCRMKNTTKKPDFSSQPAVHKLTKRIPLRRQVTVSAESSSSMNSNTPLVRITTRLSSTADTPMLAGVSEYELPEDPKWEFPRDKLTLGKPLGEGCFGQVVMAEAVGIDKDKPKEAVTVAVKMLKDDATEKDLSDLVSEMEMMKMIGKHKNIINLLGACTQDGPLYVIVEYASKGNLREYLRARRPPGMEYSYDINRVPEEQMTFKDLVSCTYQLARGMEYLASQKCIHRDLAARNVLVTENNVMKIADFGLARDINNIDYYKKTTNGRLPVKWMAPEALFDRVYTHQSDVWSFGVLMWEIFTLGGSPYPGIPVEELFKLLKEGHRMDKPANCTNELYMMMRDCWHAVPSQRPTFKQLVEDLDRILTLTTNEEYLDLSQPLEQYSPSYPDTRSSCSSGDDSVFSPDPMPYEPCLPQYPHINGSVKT

FGFR-2c = molecular target: T4, FGFR-2c (Homo sapiens, UniProt P21802); experiment: BiaCore binding kinetics; conditions: BiaCore kinetic analysis
T4 construct: purchased R&D Systems
T4 sequence (P21802 22-821): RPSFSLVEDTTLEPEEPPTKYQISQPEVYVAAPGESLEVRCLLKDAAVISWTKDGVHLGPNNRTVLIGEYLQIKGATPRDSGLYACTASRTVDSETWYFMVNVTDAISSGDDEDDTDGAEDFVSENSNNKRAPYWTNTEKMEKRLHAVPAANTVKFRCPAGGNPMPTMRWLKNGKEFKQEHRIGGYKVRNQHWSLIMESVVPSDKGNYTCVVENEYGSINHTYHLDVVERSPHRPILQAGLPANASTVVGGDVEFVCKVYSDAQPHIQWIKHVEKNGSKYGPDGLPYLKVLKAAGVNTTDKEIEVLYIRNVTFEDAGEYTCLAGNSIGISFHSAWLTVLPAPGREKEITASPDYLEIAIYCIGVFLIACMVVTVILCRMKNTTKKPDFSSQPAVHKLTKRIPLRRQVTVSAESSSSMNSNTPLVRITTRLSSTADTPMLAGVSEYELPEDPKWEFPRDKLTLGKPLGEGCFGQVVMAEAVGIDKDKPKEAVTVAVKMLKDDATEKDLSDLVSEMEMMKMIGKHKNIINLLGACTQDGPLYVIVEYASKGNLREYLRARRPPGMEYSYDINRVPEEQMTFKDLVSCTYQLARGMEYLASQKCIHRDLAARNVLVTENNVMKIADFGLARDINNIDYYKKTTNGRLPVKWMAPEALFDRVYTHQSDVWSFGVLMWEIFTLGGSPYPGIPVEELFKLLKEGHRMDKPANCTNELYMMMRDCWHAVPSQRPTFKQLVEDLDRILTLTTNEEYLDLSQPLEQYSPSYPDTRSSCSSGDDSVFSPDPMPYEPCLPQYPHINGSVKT

FGFR-3b = molecular target: T5, FGFR-3b (Homo sapiens, UniProt P22607); experiment: BiaCore binding kinetics; conditions: BiaCore kinetic analysis
T5 construct: purchased R&D Systems
T5 sequence (P22607 23-808 isoform P22607-2 limits assumed): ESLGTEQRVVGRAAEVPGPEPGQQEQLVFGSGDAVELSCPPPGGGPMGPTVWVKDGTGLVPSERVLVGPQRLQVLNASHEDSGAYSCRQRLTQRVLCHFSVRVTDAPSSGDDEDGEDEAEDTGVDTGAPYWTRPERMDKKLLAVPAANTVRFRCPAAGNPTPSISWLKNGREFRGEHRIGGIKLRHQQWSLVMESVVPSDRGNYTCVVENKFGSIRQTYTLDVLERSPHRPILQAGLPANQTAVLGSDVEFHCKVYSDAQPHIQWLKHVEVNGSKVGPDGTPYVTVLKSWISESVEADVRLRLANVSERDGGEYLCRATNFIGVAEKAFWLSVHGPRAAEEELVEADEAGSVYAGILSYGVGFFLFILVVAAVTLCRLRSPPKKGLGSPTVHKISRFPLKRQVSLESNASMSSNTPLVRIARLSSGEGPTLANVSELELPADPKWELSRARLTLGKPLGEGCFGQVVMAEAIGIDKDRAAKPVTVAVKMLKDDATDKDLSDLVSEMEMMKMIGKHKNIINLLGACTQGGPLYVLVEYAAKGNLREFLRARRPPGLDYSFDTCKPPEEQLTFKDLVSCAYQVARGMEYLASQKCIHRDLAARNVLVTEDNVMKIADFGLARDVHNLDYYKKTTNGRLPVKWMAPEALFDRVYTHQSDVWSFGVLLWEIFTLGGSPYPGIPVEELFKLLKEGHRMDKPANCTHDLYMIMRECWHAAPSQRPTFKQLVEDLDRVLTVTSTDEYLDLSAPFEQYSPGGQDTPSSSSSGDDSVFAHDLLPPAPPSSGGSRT

FGFR-3c = molecular target: T6, FGFR-3c (Homo sapiens, UniProt P22607); experiment: BiaCore binding kinetics; conditions: BiaCore kinetic analysis
T6 construct: purchased R&D Systems
T6 sequence (P22607 23-806): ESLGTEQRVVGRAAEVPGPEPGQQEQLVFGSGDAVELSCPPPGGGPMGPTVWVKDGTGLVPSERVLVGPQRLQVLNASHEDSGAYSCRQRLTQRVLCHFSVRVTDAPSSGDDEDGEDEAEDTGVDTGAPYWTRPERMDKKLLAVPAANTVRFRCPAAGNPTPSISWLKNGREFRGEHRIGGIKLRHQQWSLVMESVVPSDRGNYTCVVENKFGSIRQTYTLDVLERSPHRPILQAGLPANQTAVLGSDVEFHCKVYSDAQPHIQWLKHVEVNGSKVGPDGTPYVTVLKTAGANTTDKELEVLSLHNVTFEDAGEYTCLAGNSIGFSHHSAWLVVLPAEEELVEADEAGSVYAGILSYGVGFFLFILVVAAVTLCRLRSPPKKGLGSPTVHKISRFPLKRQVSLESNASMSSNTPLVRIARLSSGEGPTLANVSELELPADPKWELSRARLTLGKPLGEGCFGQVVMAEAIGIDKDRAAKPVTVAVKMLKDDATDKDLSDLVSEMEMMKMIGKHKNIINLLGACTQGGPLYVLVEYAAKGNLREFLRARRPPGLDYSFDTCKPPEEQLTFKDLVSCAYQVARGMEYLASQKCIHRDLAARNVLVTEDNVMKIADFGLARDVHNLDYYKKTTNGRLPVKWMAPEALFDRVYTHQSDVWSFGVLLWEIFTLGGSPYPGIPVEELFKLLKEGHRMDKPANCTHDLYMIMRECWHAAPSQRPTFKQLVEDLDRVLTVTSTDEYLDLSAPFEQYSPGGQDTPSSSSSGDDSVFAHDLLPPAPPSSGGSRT

FGFR-4 = molecular target: T7, FGFR-4 (Homo sapiens, UniProt P22455); experiment: ELISA binding assay
T7 construct: purchased R&D Systems
T7 sequence (P22455 22-802): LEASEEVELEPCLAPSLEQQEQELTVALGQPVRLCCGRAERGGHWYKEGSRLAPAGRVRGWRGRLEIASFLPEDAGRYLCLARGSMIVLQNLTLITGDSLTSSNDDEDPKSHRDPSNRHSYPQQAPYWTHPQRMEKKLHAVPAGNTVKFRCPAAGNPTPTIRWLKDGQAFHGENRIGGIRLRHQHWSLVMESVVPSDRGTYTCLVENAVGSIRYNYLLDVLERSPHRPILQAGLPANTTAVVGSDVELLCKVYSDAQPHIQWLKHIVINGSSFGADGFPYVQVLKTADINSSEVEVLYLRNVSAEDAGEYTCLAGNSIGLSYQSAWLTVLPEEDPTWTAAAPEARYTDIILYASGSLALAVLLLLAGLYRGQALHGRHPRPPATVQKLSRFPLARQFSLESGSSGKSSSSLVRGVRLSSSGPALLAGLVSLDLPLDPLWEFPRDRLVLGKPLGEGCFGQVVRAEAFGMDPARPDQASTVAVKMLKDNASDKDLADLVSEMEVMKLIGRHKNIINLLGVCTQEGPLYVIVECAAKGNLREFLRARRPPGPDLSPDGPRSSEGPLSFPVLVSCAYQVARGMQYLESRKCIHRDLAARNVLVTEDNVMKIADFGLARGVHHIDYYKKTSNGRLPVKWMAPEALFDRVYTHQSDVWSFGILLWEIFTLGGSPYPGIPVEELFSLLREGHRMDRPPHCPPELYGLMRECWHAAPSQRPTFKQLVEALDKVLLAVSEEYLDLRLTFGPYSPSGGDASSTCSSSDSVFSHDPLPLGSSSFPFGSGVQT
Description: (§1) Recombinant FGFRs (R&D systems) at a concentration of 1 μg/ml in PBS were coated on 96-well plates at room temperature for 2 hrs. The plates were washed 3 times with 0.2% Tween20/PBS, and blocked with 5% milk/PBS for 2 hrs before use. FR1-H7 or FR1-A1 was added to the plate and serially diluted in 0.2% Tween20/PBS. The plate was incubated at room temperature for 2 more hrs. The captured antibodies were detected using an anti-human light chain monoclonal antibody conjugated with […] (Pierce Biotechnology, Rockford, Ill.) solution prepared according to supplier's instructions.

other FGFRs = experiment: ELISA binding assay
Description: as §1

FGFR-1 = molecular target: T8, FGFR-1 (Homo sapiens, UniProt P11362); experiment: Phosphorylation assay in FGFR-1 expressing L6 cells (western blot); type: cell-based; conditions: anti-phospho-tyrosine western blot
T8 construct: expressed in transfected cells; host or cells: L6 (ATCC), pBABE retroviral vector
T8 sequence (P11362 22-822): as the sequence (P11362 22-822) above
Description: FGFR-1 expressing L6 cells were cultured in 10% FBS, DMEM, in a 24-well tissue culture plate till confluency. Cells were Serum starved in 5 μg/ml heparin, 0.1% FBS, DMEM, for 8-24 hrs. Either FR1-H7 or FR1-A1 was added to the media and allowed to bind with the cell surface receptors at 37° C. for 1 hr. Cells were then stimulated with 20 ng/ml FGFs at 37° C. for 10 min before they were lyzed using ice-cold lysis buffer for 30 min. Cell lysate was subjected to SDS-PAGE followed by western blot. Membranes were probed with anti-phospho-tyrosine antibody (Cell Signaling Technology, Inc., Beverly, Mass.) for detection of phosphorylated FGFR-1 receptors according to supplier's instructions.
The phosphorylation assay for small molecules is essentially the same as the phosphorylation assay described in Examples 7 and 15 and Phosphorylation Assay, except that small molecule compounds was used instead of FGFR-1 antibodies in all occasions. […] Equal amount of cell lysates were applied to each sample lane. Receptor auto-phosphorylation was probed using anti-phospho-tyrosine antibody as described in the original patent.

[1] = test system: Human astrocytoma G18 cells; experiment: Mitogenesis assay (3H-thymidine); type: cell-based; conditions: FGF-2 stimulation
Description: Human astrocytoma G18 cells were seeded in 96-well tissue culture plates at a concentration of 5×10^4 cells/ml. After attachment, cells were quiesced for 24 hrs in RPMI media (Invitrogen) containing 0.1% FBS and 5 μg/ml heparin. Antibodies were serially diluted, added to the wells, and incubated with the cells at 37° C. for 1 hr. Recombinant FGF-2 was then added to a final concentration of 5 ng/ml. Cells were cultured in an incubator at 37° C. with 5% CO2. Cell growth was determined 24 hrs later by monitoring ^3H-thymidine incorporation as described previously.

[2] = Repeated-dose study in female athymic nude mice: body weight, food intake, rearing, blood glucose; type: in vivo; conditions: for body weight loss compared to the control: day 5 after two treatments; for reduction of non-fast food intake: between first and second treatments
Description: Female athymic nude mice (Cr1:NU/NU-nuBR, Charles River Laboratories, Wilmington, Mass.) were housed 4-5 per cage. Mice were given autoclaved food (Lab Diet #5001, PMI Feeds Inc., St. Louis, Mo.) and water ad libitum. All animal use in this study was conducted in compliance with approved institutional animal care and use protocols, and according to NIH guidelines (Guide for the Care and Use of Laboratory Animals, NIH publication no. 86-23, 1985).
In one assay, mice were injected intraperitoneally (i.p.) with FR1-H7 at 0.19, 1.9, and 19 mg/kg body weight (n=5 per group). In another assay, mice were injected subcutaneously (s.c.) with the antibody, at 0.4, 4, and 40 mg/kg body weight. In control arms, mice were treated with saline i.p. or s.c. In addition, one group of mice was left untreated (n=4). All treatments were given at a volume of 10 μl/g body weight in Saline. Treatments were started on a Wednesday (Day 0) with additional treatments on the following Friday, Monday, Wednesday, and Friday. After this 9-day treatment period mice received no additional treatments.
Alternatively, female athymic nude mice were injected (i.p.) with saline, 2 mg/kg, or 20 mg/kg FR1-A1 on a Monday (Day 0) and Wednesday. Body weights were measured before the first injection, and on Day 2 and Day 5. Food intake per group was measured 2 days after the first injection.
The body weights of all animals were measured 3 times/week. Food consumption, behavior, and serum glucose were evaluated as follows. Food Intake Measurement: Prior to the treatment on Day 2 mice were placed in a new cage and the weight of the food container in the cage top was weighed. Prior to the treatment on Day 5 the weight of the food container was measured again. The difference in the Day 2 to Day 5 food container weight was divided by the number of mice per cage and the number of days between the measurements to give a food intake per mouse per 24 hrs. Activity Measurement: On Day 12, 3 days after the final treatment, mice were placed individually into a new cage and the number of rearings was counted over a 1 min period. Blood Glucose Measurement On Day 16, 7 days after the final treatment, non-fasted blood glucose was measured in blood collected from the tip of the tail using an Ascensia Elite XL blood glucose meter (glucose oxidase method, Bayer, Pittsburg, Pa.).

FGFR-1(IIIc) [3] = molecular target: T9, FGFR-1(IIIc) (Homo sapiens, UniProt P11362); experiment: ELISA binding assay; design: purchased R&D Systems
T9 sequence (P11362 22-822): as above
Description: as §1

FGFR-1(IIIc) [4] = molecular target: T9, FGFR-1(IIIc); experiment: ELISA blocking assay (receptor binding to immobilized FGF); design: purchased R&D Systems
Description: Recombinant FGFs (R&D systems, Minneapolis, Minn.) were coated on Immulon® 2B microtiter plates (ThermoLab Systems, Franklin, Mass.) at concentrations of 0.5-2 μg/ml for 2 hrs. The plates were then washed with 0.2% Tween20/PBS, and blocked with 5% milk/PBS for 2 hrs before use. Phage or antibody was serially diluted with 5 μg/ml heparin (Sigma, St Louis, Mo.), 5% milk, PBS. Recombinant FGFR-1 (R&D Systems) was then added to a final concentration of 1 μg/ml. The mixture was incubated at room temperature for 1 hr before transfer to the FGF-2 coated plates, and incubated at room temperature for an additional 2 hrs. Plates were then washed 3 times with 0.2% Tween20/PBS. The bound receptors were detected using an anti-human Fc monoclonal antibody coupled with HRP (Pierce Biotechnology Inc., Rockford, Ill.) solution prepared according to supplier's instructions. Data were presented as % inhibition of ligand-receptor binding of the controls.

B1: FR1-A1: antibody specific for FGFR-1(IIIc) and/or FGFR-4(IIIc); VH/VL SEQ ID NOS:15, 16 (antibody, listed as Homo sapiens, V domains shown)
VH: MAQVQLVQSGAEVKKPGSSVKVSCKASGQTFTGYYMHWVRQAPGQGLEWMGRIIPILGIANYAQKFQGRVTITADKSTSTAYMELSSLRSEDTAVYYCARGGDLGGMDVWGQG
VL: LEIVLTQSPLSLPVTPGEPASISCRSSQSLRHSNGYNYLDWYLQKPGQSPQLLIYLASNRASGVPDRFSGSGSGTDFTLKISRVEAEDVGVYYCMQALQIPPTFGPGTKVDIKRTVAA
Kd (FGFR-1b): > 10 µM | Kd (FGFR-1c): 0.7 nM | Kd (FGFR-2b): > 10 µM | Kd (FGFR-2c): > 10 µM | Kd (FGFR-3b): > 10 µM | Kd (FGFR-3c): > 10 µM | binding to FGFR-4 (FGFR-4): moderate affinity | binding to the other FGFRs (other FGFRs): little binding | inhibition of ligand (FGF) mediated receptor phosphorylation (FGFR-1; antibody): significantly inhibits | receptor activation by the antibody by itself (FGFR-1; no ligand): does not activated the receptor | FGF-2 stimulated DNA synthesis (mitogenesis) of G18 cells [1]: decreased this stimulation in a dose-dependant manner | body weight loss compared to the control ([2]; 2 mg/kg i.p.): ~9% | reduction of non-fast food intake ([2]; 2 mg/kg): ~14% | body weight loss compared to the control ([2]; 20 mg/kg i.p.): ~23% | reduction of non-fast food intake ([2]; 20 mg/kg): ~44% | binding to FGFR-1(IIIc) (FGFR-1(IIIc) [3]): strong binding affinity | IC50 (FGFR-1(IIIc) [4]; immobilized FGF-1, read-out: IC50, blocking FGFR-1(IIIc) binding to FGF-1): ~5 nM | IC50 (FGFR-1(IIIc) [4]; immobilized FGF-2, read-out: IC50, blocking FGFR-1(IIIc) binding to FGF-2): ~10 nM
